Experimental data taken from EP4671273A1 (Anaveon AG, dated 2025).
Changes are numbered by the printed parent chain.

B1: ZAP122 Fab (Fab, V domains shown)
VH: QVQLQESGPGLVKPSETLSLTCTVSGGSISSDFWGWIRQPPGKGLEWIGYISSRGSTNYNPSLKRRVTISVDTSRNQFSLKLSSVTAADTAVYYCARSAGVTDFDFWGQGTLVTVSS
VL: DIQMTQSPSSVSASVGDRVTITCRASQGISSWLAWYQHKPGKAPKLLIYVASSLQSGVPSRFSGSGSGTDFTLTISSLQPEDFATYYCQQANSFPLTFGGGTKVEIK
notes: Fab; also called ZAP122 wt
B2: MEK904 Fab (Fab, V domains shown)
VH: B1 VH with F33Y, S53Y, R65S, T102A
VL: B1 VL with M4L, N92S
notes: Fab
B3: OWS965 Fab (Fab, V domains shown)
VH: B1 VH with F33Y, S53Y, R54S, R65S, T102A, F106A
VL: B1 VL with M4L, N92S
notes: Fab
B4: VPH777 Fab (Fab, V domains shown)
VH: B1 VH with F33Y, R54S, R65S, T102A
VL: B1 VL with M4L, N92S
notes: Fab
B5: RPD212 Fab (Fab, V domains shown)
VH: B1 VH with F33Y, S53Y, R54S, R65S, F106A
VL: B1 VL with M4L, N92S
notes: Fab
B6: CLJ397 Fab (Fab, V domains shown)
VH: B1 VH with F33Y, S53Y, R65S, T102A, F106A
VL: B1 VL with M4L, N92S
notes: Fab
B7: JSQ278 Fab (Fab, V domains shown)
VH: B1 VH with F33Y, S53Y, R65S, F106A
VL: B1 VL with M4L, N92S
notes: Fab
B8: IFQ920 Fab (Fab, V domains shown)
VH: B1 VH with T102A
VL: B1 VL with F94A
notes: Fab
B9: PAI969 Fab (Fab, V domains shown)
VH: B1 VH with F33Y, R54S, R65S, T102A, F106A
VL: B1 VL with M4L, N92S
notes: Fab
B10: IOO459 Fab (Fab, V domains shown)
VH: B1 VH with F33Y, T102A
VL: B1 VL with F94A
notes: Fab
B11: ZXI489 Fab (Fab, V domains shown)
VH: B1 VH with F33Y, S53Y, R65S, F106W
VL: B1 VL with M4L, N92S, F94A
notes: Fab
B12: UER756 Fab (Fab, V domains shown)
VH: B1 VH with F33Y, R54S, R65S, F106A
VL: B1 VL with M4L, N92S
notes: Fab
B13: EJT070 Fab (Fab, V domains shown)
VH: B1 VH with F33Y, S53Y, R54S, R65S, T102A
VL: B1 VL with M4L, N92S
notes: Fab
B14: 21A08Ap1 (antibody, human IgG1, V domains shown)
VH: EVQLLESGGGLVQPGGSLRLSCAASGFTFSINAMTWVRQAPGKGLEWVSTISGSGFSTYYADSLKGRFTISRDNSKNTLYLQMNSLRAEDTAVYYCAKEVYGDYWGQGTLVTVSS
VL: RSVLTQPPSASGTPGQRVSISCSGASSNIGSQSVFWYQQLPGTAPKLLIYSNNQRPSGVPDRFSGSKSGTSASLAISGLRSEDEADYYCAAWDDSLSIWVFGGGTKLTVL
notes: human IgG1; also called anti-PD-1 antibody clone 21A08Ap1
B15: GDY271 (antibody, human IgG1, V domains shown)
VH: B14 VH
VL: B14 VL with F35Y
notes: human IgG1
B16: FHX509 (antibody, human IgG1, V domains shown)
VH: B14 VH
VL: B14 VL with I98A
notes: human IgG1
B17: GZZ692 (antibody, human IgG1, V domains shown)
VH: B14 VH
VL: B14 VL with I49G
notes: human IgG1
B18: DKR699 (antibody, human IgG1, V domains shown)
VH: VQLVQSGAEVKKPGASVKVSCKASGYTFTNFYIHWVRQAPGQGLEWMGSIYPNYGDTAYNQKFKDRVTMTVDTSTSTAYMELRSLRSDDTAVYYCARGYSYAMDYWGQGTTVTVSS
VL: DIQMTQSPSSVSASVGDRVTITCSASQGISGDLNWYQQKPGKAPKLLIYHTSQLHSDVPSRFSGSGSGTDFTLTISSLQPEDFATYYCQGYSKDLLTFGGGTKLEIK
notes: human IgG1
B19: ZTD928 (antibody, human IgG1, V domains shown)
VH: B18 VH with D56I
VL: B18 VL with L95T
notes: human IgG1
B20: ICW519 (antibody, human IgG1, V domains shown)
VH: B18 VH with D56I, K64Q
VL: B18 VL
notes: human IgG1
B21: WAZ460 (antibody, human IgG1, V domains shown)
VH: B18 VH with D56I
VL: B18 VL with S24R
notes: human IgG1
B22: YCF391 (antibody, human IgG1, V domains shown)
VH: B18 VH with I50T, D56I
VL: B18 VL
notes: human IgG1
B23: PEV057 (antibody, human IgG1, V domains shown)
VH: B18 VH with D56I, V92T
VL: B18 VL
notes: human IgG1
B24: RZL961 (antibody, human IgG1, V domains shown)
VH: B18 VH with N53Q, D56I
VL: B18 VL
notes: human IgG1
B25: KOB135 (antibody, human IgG1, V domains shown)
VH: B18 VH with D56I
VL: B18 VL with L54Q
notes: human IgG1
B26: JPK663 (antibody, human IgG1, V domains shown)
VH: B18 VH with D56I
VL: B18 VL with I21A
notes: human IgG1
B27: NRT742 (antibody, human IgG1, V domains shown)
VH: B18 VH with D56I
VL: B18 VL with T51A
notes: human IgG1
B28: QGA408 (antibody, human IgG1, V domains shown)
VH: B18 VH with D56I, Y59F
VL: B18 VL
notes: human IgG1
B29: OKM590 (antibody, human IgG1, V domains shown)
VH: B18 VH with D56I, Y105V
VL: B18 VL
notes: human IgG1

What follows are binders tested against T1, rhIL-21-His (AB235875-1001, Abcam) (human, UniProt Q9HBE4 30-162) (assay: SPR, Fab on captured rhIL-21-His).
T1 construct: bought; not shown: His tag, length and position not described
T1 sequence (Q9HBE4 30-162 limits assumed): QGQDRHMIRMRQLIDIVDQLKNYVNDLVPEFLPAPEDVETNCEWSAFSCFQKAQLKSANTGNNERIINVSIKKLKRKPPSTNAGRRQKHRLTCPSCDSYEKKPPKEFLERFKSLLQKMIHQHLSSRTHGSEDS

In order of rising Kd:
1. B1  0.313 nM
2. B6  0.55 nM
3. B7  0.56 nM
4. B2  0.69 nM
5. B4  0.73 nM
6. B12  0.81 nM
7. B13  0.82 nM
8. B9  0.98 nM
9. B5  1.1 nM
10. B3  2 nM
11. B11  7.04 nM
12. B8  8.28 nM
13. B10  15.6 nM

In order of rising koff:
1. B1  6.91e-05 s⁻¹
2. B4  0.0001 s⁻¹
3. B12  0.00011 s⁻¹
4. B9  0.00014 s⁻¹
5. B2  0.00015 s⁻¹
6. B5  0.00015 s⁻¹
7. B6  0.00015 s⁻¹
8. B7  0.00015 s⁻¹
9. B3  0.00017 s⁻¹
10. B13  0.0002 s⁻¹
11. B8  0.00233 s⁻¹
12. B11  0.00484 s⁻¹
13. B10  0.0222 s⁻¹

In order of rising kon:
1. B3  87000 M⁻¹ s⁻¹
2. B5  130000 M⁻¹ s⁻¹
3. B4  140000 M⁻¹ s⁻¹
4. B9  140000 M⁻¹ s⁻¹
5. B12  140000 M⁻¹ s⁻¹
6. B2  210000 M⁻¹ s⁻¹
7. B1  221000 M⁻¹ s⁻¹
8. B13  250000 M⁻¹ s⁻¹
9. B6  270000 M⁻¹ s⁻¹
10. B7  270000 M⁻¹ s⁻¹
11. B8  281000 M⁻¹ s⁻¹
12. B11  688000 M⁻¹ s⁻¹
13. B10  1.42e+06 M⁻¹ s⁻¹

Each binder was assayed against T2, cynomolgus PD-1 (#PD1-C52H5, AcroBiosystems) (cynomolgus monkey, UniProt B0LAJ3 25-170) (assay: SPR, PD-1 on captured IgG1).
T2 construct: bought; also called cynomolgus monkey PD-1; not shown: the vendor's tag on the recombinant protein (AcroBiosystems #PD1-C52H5)
T2 sequence (B0LAJ3 entry or part of it limits assumed, form in doubt): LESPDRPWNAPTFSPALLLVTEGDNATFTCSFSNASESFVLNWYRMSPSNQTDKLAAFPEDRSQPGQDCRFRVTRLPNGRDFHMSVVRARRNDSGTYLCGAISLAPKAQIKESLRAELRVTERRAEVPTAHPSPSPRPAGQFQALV

In order of rising Kd:
1. B16  0.699 nM
2. B14  1.25 nM
3. B17  4.5 nM
4. B15  6.38 nM

In order of falling koff:
1. B15  12.2 s⁻¹
2. B17  0.00153 s⁻¹
3. B14  0.000259 s⁻¹
4. B16  0.000239 s⁻¹

In order of rising kon:
1. B14  206000 M⁻¹ s⁻¹
2. B17  340000 M⁻¹ s⁻¹
3. B16  341000 M⁻¹ s⁻¹
4. B15  1.91e+09 M⁻¹ s⁻¹

What follows are binders tested against T3, human PD-1 (#PD1-H82E4, AcroBiosystems) (human, UniProt Q15116 25-167) (assay: SPR, PD-1 on captured IgG1).
T3 construct: bought
T3 sequence (Q15116 25-167 limits assumed): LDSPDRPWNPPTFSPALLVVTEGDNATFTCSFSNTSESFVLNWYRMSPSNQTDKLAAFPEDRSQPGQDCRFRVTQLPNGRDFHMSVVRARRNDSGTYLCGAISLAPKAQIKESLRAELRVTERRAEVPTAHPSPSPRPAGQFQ

In order of rising Kd:
1. B16  0.694 nM
2. B14  1.27 nM
3. B17  1.41 nM
4. B15  3.56 nM

In order of rising koff:
1. B16  8.38e-05 s⁻¹
2. B14  0.00011 s⁻¹
3. B17  0.000209 s⁻¹
4. B15  0.0013 s⁻¹

In order of rising kon:
1. B14  86800 M⁻¹ s⁻¹
2. B16  121000 M⁻¹ s⁻¹
3. B17  148000 M⁻¹ s⁻¹
4. B15  364000 M⁻¹ s⁻¹

Biological target: T2, cynomolgus PD-1 (#PD1-C52H5, …)
Test: SPR, PD-1 on captured IgG1
Remark: another data set of the same source

In order of rising Kd:
1. B26  0.246 nM
2. B20  0.296 nM
3. B23  0.327 nM
4. B28  0.328 nM
5. B21  0.331 nM
6. B25  0.362 nM
7. B19  0.502 nM
8. B27  0.541 nM
9. B29  0.627 nM
10. B22  0.664 nM
11. B24  0.785 nM
12. B18  0.86 nM

In order of falling koff:
1. B24  0.000436 s⁻¹
2. B29  0.000345 s⁻¹
3. B27  0.000297 s⁻¹
4. B22  0.00026 s⁻¹
5. B19  0.000243 s⁻¹
6. B18  0.000203 s⁻¹
7. B28  0.000182 s⁻¹
8. B25  0.000179 s⁻¹
9. B20  0.000176 s⁻¹
10. B21  0.00016 s⁻¹
11. B23  0.00016 s⁻¹
12. B26  0.000124 s⁻¹

In order of falling kon:
1. B20  592000 M⁻¹ s⁻¹
2. B24  555000 M⁻¹ s⁻¹
3. B28  555000 M⁻¹ s⁻¹
4. B29  551000 M⁻¹ s⁻¹
5. B27  549000 M⁻¹ s⁻¹
6. B26  504000 M⁻¹ s⁻¹
7. B25  495000 M⁻¹ s⁻¹
8. B23  489000 M⁻¹ s⁻¹
9. B21  485000 M⁻¹ s⁻¹
10. B19  483000 M⁻¹ s⁻¹
11. B22  391000 M⁻¹ s⁻¹
12. B18  236000 M⁻¹ s⁻¹

Biological target: T3, human PD-1 (#PD1-H82E4, AcroBiosystems)
Test: SPR, PD-1 on captured IgG1
Remark: another data set of the same source

In order of falling Kd:
1. B24  1.21 nM
2. B27  0.955 nM
3. B29  0.955 nM
4. B22  0.808 nM
5. B19  0.801 nM
6. B18  0.606 nM
7. B23  0.521 nM
8. B21  0.515 nM
9. B20  0.511 nM
10. B25  0.506 nM
11. B28  0.48 nM
12. B26  0.429 nM

In order of rising koff:
1. B18  0.000121 s⁻¹
2. B26  0.000144 s⁻¹
3. B25  0.000166 s⁻¹
4. B20  0.000187 s⁻¹
5. B23  0.000189 s⁻¹
6. B21  0.000202 s⁻¹
7. B28  0.000208 s⁻¹
8. B19  0.00028 s⁻¹
9. B22  0.000336 s⁻¹
10. B29  0.00039 s⁻¹
11. B27  0.000406 s⁻¹
12. B24  0.000536 s⁻¹

In order of rising kon:
1. B18  200000 M⁻¹ s⁻¹
2. B25  329000 M⁻¹ s⁻¹
3. B26  336000 M⁻¹ s⁻¹
4. B19  349000 M⁻¹ s⁻¹
5. B23  363000 M⁻¹ s⁻¹
6. B20  365000 M⁻¹ s⁻¹
7. B21  393000 M⁻¹ s⁻¹
8. B29  409000 M⁻¹ s⁻¹
9. B22  416000 M⁻¹ s⁻¹
10. B27  426000 M⁻¹ s⁻¹
11. B28  434000 M⁻¹ s⁻¹
12. B24  444000 M⁻¹ s⁻¹

Each binder was assayed against T4, Recombinant hIL-21-Fc (AcroBiosystems) (human, UniProt Q9HBE4 30-162) (assay: SPR, Fab on captured rhIL-21-Fc).
T4 construct: bought; also called rhIL-21; not shown: Fc of the bought reagent, not described
T4 sequence (Q9HBE4 30-162): as the sequence (Q9HBE4 30-162 limits assumed) above

With B1 the Kd was < 0.0265 nM.

B1 was tested, and the koff was < 1e-05 s⁻¹.

B1 gave a kon of 377000 M⁻¹ s⁻¹.
